Experimental data taken from paper PMC8505397, “Development of peptides targeting receptor binding site of the envelope glycoprotein to contain the West Nile virus infection” (Scientific Reports, 2021).
Several values for one entry are separate records, joined by “and”; a condition that tells them apart may be missing. Equal entries are not always repeated. Positions of bridges follow the written chain, without caps; N, C: chain ends. No end group written: not given here.

Tests used:
[1] = molecular target: T1, interaction between rDIII and ~ 15 kDa receptor of hBMECs (West Nile virus, UniProt P06935); test: Blocking of interaction between rDIII and proteins of hBMECs by peptides (Western blot); type: binding, West Nile virus / human; conditions: 2.5 µg (0.19 nM) rDIII pre-incubated with tenfold molar excess (1.9 nM) of peptide
T1 construct: rDIII – recombinant domain III; made in house; host or cells: E. coli M15
T1 sequence (P06935 584-692 limits assumed): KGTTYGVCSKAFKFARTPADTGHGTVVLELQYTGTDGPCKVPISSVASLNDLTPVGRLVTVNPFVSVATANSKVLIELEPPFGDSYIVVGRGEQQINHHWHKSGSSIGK
Experimental: (§1) First, concentration-dependent ELISA and Western blot were performed to get the minimum concentration of rDIII required to show its interaction with hBMECs proteins. Details are presented in Supplementary Method S12 and Supplementary Method S13. Subsequently, the ability of 7-mer and 12-mer peptides to block the interaction between rDIII and proteins of hBMECs was tested. A tenfold molar excess of peptides was incubated with rDIII for 1 h at room temperature. Such pre-incubated rDIII was subsequently used in the assays. Details of both methods are described in Supplementary Method S12 and Supplementary Method S13. […]
Blocking of interaction between rDIII and proteins of hBMECs by peptides (Western blot).
Two hundred micrograms of proteins extracted from hBMECs were separated on 2-well PAGE […]
gel (12% polyacrylamide gel) and transferred on 0.45 μm nitrocellulose membrane (Amersham Protran; GE Healthcare) for 1 h at 30 V. Details of LDS-PAGE are described in Supplementary Methods S7. The membrane was cut horizontally to obtain proteins of molecular weight between ~10 kDa to ~25 kDa. Subsequently, this membrane was sliced vertically to obtain 0.3 cm strips, which were then used in Western blot (Supplementary Fig.
The NC strips with transblotted hBMECs proteins were first incubated with rDIII at various concentrations to find out the minimal concentration of rDIII required to detect the interaction with hBMECs proteins. Non-specific binding sites were blocked with 1% BSA in 0.05% TBST (pH 7.2) for 1 h at room temperature and constant shaking followed by a washing step for 5 min with 0.05% TBST. The NC strips were incubated with rDIII at different concentrations (5 µg, 2.5 µg, 2 µg, 1 µg, 500 ng) diluted in 1 mL of 0.05% TBST for 3 h at room temperature and constant shaking. After 3 washings with 0.05% TBST, strips were incubated with HisProbe-HRP conjugate (1:5,000 dilution in 0.1% BSA in 0.05% TBST; Thermo Fisher Scientific) for 30 min at room temperature. Six washings, each of 5 min were performed before incubating the strips in SuperSignal chemiluminescence substrate (Thermo Fisher Scientific). The signal was captured on the C-DiGit Blot Scanner (Odyssey CLx, LI-COR Biosciences). For negative control, rDIII was excluded from the above-mentioned protocol.
To block the interaction, the NC strips were blocked as described above.
Simultaneously, 2.5 µg (0.19 nM) of rDIII were pre-incubated with 2.75 µg of each peptide (10-fold molar excess; 1.9 nM) in TBS for 1 h at room temperature. Further on, strips were incubated with pre-incubated rDIII for 3 h at room temperature with constant shaking. After 3 washings with 0.05% TBST, strips were incubated with HisProbe-HRP conjugate as described above. […]

rDIII = molecular target: T2, rDIII (West Nile virus, UniProt P06935); test: ELISA of the binding of 7-mer cyclic and 12-mer linear peptides to rDIII; conditions: peptides coated through C-terminus in CovaLink NH plates; 1 µg rDIII; HisProbe-HRP; negative control subtracted
T2 construct: rDIII – recombinant domain III; made in house; host or cells: E. coli M15
T2 sequence (P06935 584-692 limits assumed): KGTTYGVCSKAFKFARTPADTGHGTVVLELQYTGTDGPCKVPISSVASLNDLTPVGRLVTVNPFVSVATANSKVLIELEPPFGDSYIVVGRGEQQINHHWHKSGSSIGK
Experimental: The 7-mer cyclic and 12-mer linear peptides were covalently bound in CovaLink NH microwell plates and their binding to rDIII was corroborated by ELISA. Details are presented in Supplementary Method S11.
Confirmation of the binding of 7-mer cyclic and 12-mer linear peptides to rDIII by ELISA. The 7-mer cyclic and 12-mer linear peptides were covalently bound in CovaLink NH microwell plates overnight at 4°C as per the manufacturer´s instructions (Thermo Fischer Scientific).
Unbound peptides were washed with PBS (pH 7.4) and non-specific sites were blocked with 0.5% BSA in PBS for 1 h at room temperature. After blocking, wells were washed 2 times for 2 min with CovaBuffer (2 M NaCl, 40 mM MgSO4.7H2O, 0.05% Tween 20, PBS; pH 7.2). One microgram of rDIII diluted in 0.05% PBST was added in separate wells and incubated for 1 h at room temperature with constant shaking. Wells were washed 3 times for 2 min with CovaBuffer and interaction was detected with HisProbe-HRP conjugate (1:5,000 dilution in 0.1% BSA in PBST; Thermo Fisher Scientific) for 30 min at room temperature with constant shaking. After 6 washings, the chromogenic reaction was developed using a 1-Step Ultra TMB-ELISA substrate (Thermo Fisher Scientific). After 25 min, the reaction was stopped with 2 M H2SO4 and absorbance was measured at 450 nm. For negative controls, either rDIII or peptides were excluded from the protocol. The assay was performed in triplicates. […]

[2] = molecular target: T3, interaction between rDIII and proteins of hBMECs (West Nile virus, UniProt P06935); test: Blocking of interaction between rDIII and proteins of hBMECs by peptides (ELISA); type: binding, West Nile virus / human; conditions: rDIII 0.15 nM pre-incubated with tenfold molar excess (1.5 nM) of peptide; ELISA
T3 construct: rDIII – recombinant domain III; made in house; host or cells: E. coli M15
T3 sequence (P06935 584-692 limits assumed): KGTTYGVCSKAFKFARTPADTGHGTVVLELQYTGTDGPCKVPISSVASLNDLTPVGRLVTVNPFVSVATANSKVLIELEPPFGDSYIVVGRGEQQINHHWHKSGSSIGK
Experimental: as §1
Blocking of interaction between rDIII and proteins of hBMECs by peptides (ELISA). First, different concentrations of rDIII were tested to get the minimum concentration of rDIII required to show the interaction with hBMECs proteins. Protein extract of hBMECs (4 μg/well) diluted in coating buffer (0.5 M Na2CO3, 0.5 M NaHCO3; pH 9.5) was incubated in the microtiter wells for overnight at 4°C. Unbound hBMECs proteins were washed with PBS (pH 7.3) containing 0.05% Tween 20 (0.05% PBST) and non-specific binding sites were blocked with 0.5% BSA in 0.05% PBST. rDIII at different concentrations (5 µg, 2.5 µg, 2 µg, 1 µg, 500 […]
ng, 250 ng, 125 ng, and 62.5 ng) diluted in 0.05% PBST was added into wells and incubated for 3 h at room temperature and constant shaking. Wells were washed 3 times with 0.05% PBST and incubated with HisProbe-HRP conjugate (1:5,000 dilution in 0.1% BSA in 0.05% PBST; Thermo Fisher Scientific) for 30 min at room temperature and constant shaking. […] The reaction was stopped after 25 min with 2 M H2SO4 and the absorbance was measured at 450 nm. […]
After blocking, the wells were washed 3 times with 0.05% PBST, pre-incubated rDIII was added and incubated for 3 h at room temperature with constant shaking. […] The reaction was stopped after 25 min with 2 M H2SO4 and the absorbance was measured at 450 nm. hBMECs proteins incubated with untreated rDIII were used as a positive control. […]

[3] = molecular target: T4, recombinant domain III (DIII) of the envelope (E) glycoprotein of West Nile virus (West Nile virus); test: cell-based or functional assay
T4 chain: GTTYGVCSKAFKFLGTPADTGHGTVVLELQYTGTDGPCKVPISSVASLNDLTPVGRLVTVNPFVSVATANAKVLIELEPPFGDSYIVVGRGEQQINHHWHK

[4] = molecular target: T4, recombinant domain III (DIII) of the …; test: ELISA; blocking ELISA: rDIII (2 µg, printed as 0.15 nM) pre-incubated 1 h at room temperature with a tenfold molar excess (1.5 nM) of peptide, then added to coated hBMEC proteins; negative control (no rDIII) subtracted; conditions: both partners purified

Molecule	inhibition of the interaction between rDIII and ~ 15 kDa hBMECs receptor (Western blot) [1]	A450, ELISA of peptide binding to rDIII (rDIII)	inhibition of the interaction between rDIII and hBMECs proteins [2]	neutralisation of infection of cultured cells by virus like particles (C, M and E proteins, luciferase reporter), EC50; the peptide blocks DIII binding to endothelial cells [3]	A450 of rDIII on proteins of hBMECs after pre-incubation with the peptide [4]	percent inhibition of rDIII binding to proteins of hBMECs [4]
CDPRHSKFC (ACDPRHSKFCGGGS; disulfide 2-10 (inferred)) [CP15]	did not show clear inhibition of the interaction	> 1.5				
CMQTQRAHC (ACMQTQRAHCGGGS; disulfide 2-10 (inferred)) [CP6]	did not show clear inhibition of the interaction	> 1.5				
CTNANHYFC (ACTNANHYFCGGGS; disulfide 2-10 (inferred)) [CP7]		> 1.5	37%			
HYSWSWIAYSPG (HYSWSWIAYSPGGGGS; left off: His6, N-terminal, cleaved | 28 aa tag, N-terminal, cleaved) [LP19]		0.082				
SGVYKVAYDWQH (SGVYKVAYDWQHGGGS; left off: His6, N-terminal, cleaved | 28 aa tag, N-terminal, cleaved) [LP3]	did not show clear inhibition of the interaction	2.564 and > 1.5				
ACIHSSTRACGGGS (disulfide 2-10 (inferred), additional alanine at the N-terminus (ACX7CGGGS); peptide of phage clone CC4; C-terminal linker; source: E. coli SHuffle T5, purified; N-terminal tag cleaved with enterokinase and removed on nickel beads; not shown: His6, N-terminal, cleaved; 28 aa tag, N-terminal, cleaved) [7-mer cyclic peptide CP4 (ACX7CGGGS form of CIHSSTRAC)]				17 nM	0.346	67%
ACDPRHSKFCGGGS (disulfide 2-10 (inferred), additional alanine at the N-terminus (ACX7CGGGS); peptide of phage clone CC15; C-terminal linker; source: E. coli SHuffle T5, purified; N-terminal tag cleaved with enterokinase and removed on nickel beads; not shown: His6, N-terminal, cleaved; 28 aa tag, N-terminal, cleaved) [7-mer cyclic peptide CP15 (ACX7CGGGS form of CDPRHSKFC)]					0.423	60%
ACLAQSHPLCGGGS (disulfide 2-10 (inferred), additional alanine at the N-terminus (ACX7CGGGS); peptide of phage clone CC16; C-terminal linker; also called C16; source: E. coli SHuffle T5, purified; N-terminal tag cleaved with enterokinase and removed on nickel beads; not shown: His6, N-terminal, cleaved; 28 aa tag, N-terminal, cleaved) [7-mer cyclic peptide CP16 (ACX7CGGGS form of CLAQSHPLC)]				14.8 nM	0.427	60%
ACTYENHRTCGGGS (disulfide 2-10 (inferred), additional alanine at the N-terminus (ACX7CGGGS); peptide of phage clone CC12; C-terminal linker; source: E. coli SHuffle T5, purified; N-terminal tag cleaved with enterokinase and removed on nickel beads; not shown: His6, N-terminal, cleaved; 28 aa tag, N-terminal, cleaved) [7-mer cyclic peptide CP12 (ACX7CGGGS form of CTYENHRTC)]				10.4 nM	0.418	61%
SGVYKVAYDWQHGGGS (peptide of phage clone LC3; C-terminal linker; source: E. coli SHuffle T5, purified; N-terminal tag cleaved with enterokinase and removed on nickel beads; not shown: His6, N-terminal, cleaved; 28 aa tag, N-terminal, cleaved) [12-mer linear peptide LP3 (X12GGGS form of SGVYKVAYDWQH)]					0.647	39%
ACTKTDVHFCGGGS (disulfide 2-10 (inferred), additional alanine at the N-terminus (ACX7CGGGS); peptide of phage clone CC2; C-terminal linker; source: E. coli SHuffle T5, purified; N-terminal tag cleaved with enterokinase and removed on nickel beads; not shown: His6, N-terminal, cleaved; 28 aa tag, N-terminal, cleaved) [7-mer cyclic peptide CP2 (ACX7CGGGS form of CTKTDVHFC)]				2.43 nM	0.117	89%
ACMQTQRAHCGGGS (disulfide 2-10 (inferred), additional alanine at the N-terminus (ACX7CGGGS); peptide of phage clone CC6; C-terminal linker; source: E. coli SHuffle T5, purified; N-terminal tag cleaved with enterokinase and removed on nickel beads; not shown: His6, N-terminal, cleaved; 28 aa tag, N-terminal, cleaved) [7-mer cyclic peptide CP6 (ACX7CGGGS form of CMQTQRAHC)]					0.56	47%
